Results reported in IntAct's records for PubMed 15150219.

B1: Nitrogen regulatory protein P-II (Synechococcus elongatus (strain PCC 7942)), P0A3F4 (parent)
chain: MKKIEAIIRPFKLDEVKIALVNAGIVGMTVSEVRGFGRQKGQTERYRGSEYTVEFLQKLKLEIVVEDAQVDTVIDKIVAAARTGEIGDGKIFVSPVDQTIRIRTGEKNADAI
partner: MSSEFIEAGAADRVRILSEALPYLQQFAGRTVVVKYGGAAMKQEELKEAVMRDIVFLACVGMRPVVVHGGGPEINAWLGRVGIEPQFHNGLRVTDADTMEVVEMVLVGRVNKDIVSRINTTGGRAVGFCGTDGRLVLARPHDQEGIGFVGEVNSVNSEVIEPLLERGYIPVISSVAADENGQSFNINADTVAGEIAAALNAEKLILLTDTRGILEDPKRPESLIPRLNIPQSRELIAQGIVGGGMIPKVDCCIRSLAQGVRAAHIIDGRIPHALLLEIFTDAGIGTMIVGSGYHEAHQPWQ

Variants of: B1
Conditions: with argb_syne7 argB
S49A was tested, and the “effect of a mutation on the interaction” value was “decreasing interaction”.
For S49D, the “effect of a mutation on the interaction” value was “decreasing interaction”.
With S49E the “effect of a mutation on the interaction” value was “decreasing interaction”.
